Measured values taken from the RNAGym collection of RNA variant scans (doi:10.1073/pnas.2313332121).
Variants at the floor of the assay were thinned out.

B1: TPR 5TU (parent)
chain: GGAUCUUCUCGAUCUAACAAAAAAGACAAAUCUGCCACAAAGCUUGAGAGCAUCUUCGGAUGCAGAGGCGGCAGCCUUCGGUGGCGCGAUAGCGCCAACGUUCUCAACUAUGACACGCAAAACGCGUGCUCCGUUGAAUGGAGUUUAUCAUG

Variants of: B1
Test: polymerase ribozyme fitness, log enrichment relative to wild type (log ratio); higher = more active; in vitro selection for triplet polymerase activity
In short: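 A single round of triplicate in vitro selection, including frozen incubation at −7 °C, was applied to PCR-built, transcribed mutant libraries of each subunit of a heterodimeric triplet polymerase ribozyme. Illumina sequencing of input and output libraries retained genotypes with ≥10 input reads and ≥1 read per output. Fitness is the base-2 logarithm of genotype enrichment divided by wild-type enrichment, from inverse-variance-weighted replicate averages.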

| Variant | polymerase ribozyme fitness (log ratio) |
| --- | --- |
| GGAUCUUCUCGAUCUAACAAAAAAGACAAAUCUGCCACAAAGCUUGAGAGCAAAUUCGGAUGCAGAGGCGGCAGCCUUCGGUGGCGCGAUAGCGCCAACGUUCUCAACUAUGACACGCAAAACGCGUGCUCCGUUGAAUGGAGUUUCUCAUG [U53A C54A A147C] | -2.75 |
| GGAUCUUCUCGAUCUAACAAAAAAGACAAAUCUGCCACAAAGCUUGAGAGCAACUUCGGAUGCAGAGGCGGCAGCCUUCGGUGGCGCGAUAGCGCCCACGUUCUCAACUAUGGCACGCAAAACGCGUGCUCCGUUGAAUGGAGUUUAUCAUG [U53A A97C A113G] | -3.54 |
| GGAUCUUCUCGAUCUAACAAAAAAGACAAAUCUGCCACAAAGCUUGAGAGCAACUUCGGAUGCAGAGGCGGCAGCCUUCGGUGGCGCGAUAGCGCCAACGUUCUCAUCUAUGACACGCAAAACGCGUGCUCCGUUGAAUGGAGUUUAUCAUG [U53A A107U] | -2.93 |
| GGAUCUUCUCGAUCUAACAAAAAAGACAAAUCUGCCACAAAGCUUGAGAGCAACUUCGGAUGCAGAGGCGGCAGCCUUCGGUGGCGCGAUAGCGCCAACGUUCUCAACUAUGACACGCAAAACGCGUGCUCCGUUGAAUGGAGUUUAUCCUG [U53A A150C] | -3.56 |
| GGAUCUUCUCGAUCUAACAAAAAAGACAAAUCUGCCACAAAGCUUGAGAGCAACUUCGGAUGAAGGAGCGGCAGCCUUCGGUGACGCGAUAGCGCCGACGUUCUCAACUAUGACACGCAAAACGCGUGCUCCGUUGAAUGGAGUUUAUCAUG [U53A C63A A66G G67A G84A A97G] | ≤ -4.2 |
| GGAUCUUCUCGAUCUAACAAAAAAGACAAAUCUGCCACAAAGCUUGAGAGCAAUUUAGGAUGCAGAGGCGGCAGCCUUCGGUGGCACGAUAGCGCCAACGUUCUCAACUAUGACACGCAAAACGCGUGCUCCGUUGAAUGGAGUUUAUCAUG [U53A C54U C57A G86A] | -2.08 |
| GGAUCUUCUCGAUCUAACAAAAAAGACAAAUCUGCCACAAAGCUUGAGAGCAACUUCGGAUGCAGAGGCGGCAGCCUUCGGUGGCGCGAUAGCGCCAACGUUCUCAACUAUGACGCGCAAAACGCGUGCUCCGUUGAAUGGAGUUUAUCAUG [U53A A115G] | -0.769 |
| GGAUCUUCUCGAUCUAACAAAAAAGACAAAUCUGCCACAAAGCUUGAGAGCAACUUCGGAUGCAGAGGCGGCAGCCUUCGGUGGCGCGAUAGCGCCAACGUUCUCAACUAUGACUCGCAAAACGCGUGCUCCGUUGAAUGGAGUUUAUCAUG [U53A A115U] | -2.87 |
| GGAUCUUCUCGAUCUAACAAAAAAGACAAAUCUGCCACAAAGCUUGAGAGCAACUUCGGAUGCAGAGGCGGCAGCCUUCGGUGGCGCGAUAGCGCCAACGUUCUCUACUAUGACACGCAAAACGCGUGCUCCGUUGAAUGGAGUUUAUCAUG [U53A A106U] | -1.9 |
| GGAUCUUCUCGAUCUAACAAAAAAGACAAAUCUGCCACAAAGCUUGAGAGCAACUUCGGAUGCAGAGGCGGCAGCCUUCGGUGGCGCGAUAGCGCCAACGUUCUCAACUAUGACACGCAAAGCGCGUGCUCCGAUGAAUGGAGUUUAUCAUG [U53A A122G U134A] | -3.02 |
| GGAUCUUCUCGAUCUAACAAAAAAGACAAAUCUGCCACAAAGCUUGAGAGCAACUUGGGAUGCAGAGGCGGCAGCCUUCGGUGGCGCGAUAGCGCCAACGUUCUCAACUAUGACACGCAAAACGCGUGCUCCGUUGAAUGGAGUUUAUCAUG [U53A C57G] | -2.09 |
| GGAUCUUCUCGAUCUAACAAAAAAGACAAAUCUGCCACAAAGCUUGAGAGCAACUUCGGAUGCAGAGGCGGCAGCCUUCGGUGGCGCGAUGGCGCCAACGUUCUCAACUAUGACACGCAAAACACGUGCUCCGUUGAAGGGAGUUAAUCAUG [U53A A91G G124A U139G U146A] | -3.5 |
| GGAUCUUCUCGAUCUAACAAAAAAGACAAAUCUGCCACAAAGCUUGAGAGCAAUAUCGGUUGCAGAGGCGGCAGCCGUCGGUGGUGCGAUAACGCCAACGUUCUCAACUAUAACACGCAAUACGCGUGCUCCGUUGAAUGGAGUUUAUCAUG [U53A C54U U55A A60U U77G C85U G92A G112A A121U] | ≤ -4.2 |
| GGAUCUUCUCGAUCUAACAAAAAAGACAAAUCUGCCACAAAGCUUGAGAGCAACUUCGGAUGCAGAGGCGGCAGCCUUCGGUGGCGCGAUAGCGCCCACGUUCUCAACUAUGACACGCAAAACGCGUGCUCCGUUGAAUGGAGUUUAUCAUG [U53A A97C] | -0.583 |
| GGAUCUUCUCGAUCUAACAAAAAAGACAAAUCUGCCACAAAGCUUGAGAGCAAAUUCGGAUGCAGAGGCGGCAGCCUUCGGUGGCGCGAUUGCGCCAACGUUCUCAACUAUGACACGCAAAACGCGUGCUCCGUUGAAUGGAGUUUAUCAUG [U53A C54A A91U] | ≤ -4.2 |
| GGAUCUUCUCGAUCUAACAAAAAAGACAAAUCUGCCACAAAGCUUGAGAGCAAGUUCGGAUGCAGAGGCGGCAGCCUUCGGUGGCGCGAUAGCGCCAACGUUCUCAACUAUGACACGCAAAACGCGUGCUCCGUUGAAUGGAGUUUAUCAUG [U53A C54G] | -2.2 |
| GGAUCUUCUCGAUCUAACAAAAAAGACAAAUCUGCCACAAAGCUUGAGAGCAAUUUCGGAUGCAGAGGCGGCAGCCUUCGGUGGCGCGAUAGCGCCAACGUUCUCAACUAUGACACGCAAAACGCGUGCUCCGUUGAAUGGAGUUUAUCAUG [U53A C54U] | -0.319 |
| GGAUCUUCUCGAUCUAACAAAAAAGACAAAUCUGCCACAAAGCUUGAGAGCAACUUCGGAUGCAGCGGCGGCAGCCUUCGGUGGCGCGAUUGCGCCAACGUUCGCAACUAUGACACGCAAAACACGUGCUCCGUUGAAUGAAGUUUAUCAUG [U53A A66C A91U U104G G124A G141A] | ≤ -4.2 |
| GGAUCUUCUCGAUCUAACAAAAAAGACAAAUCUGCCACAAAGCUUGAGAGCAACUUCGGAUGCAGAGGCGGCAGCCUUCGGUGGCGCGAUAGCGCCAACGUUCUCAACUCUGACACGCAAAACGCGUGCUCCGUUGAAUGGAGUUUAUCAUG [U53A A110C] | ≤ -4.2 |

| Variant | polymerase ribozyme fitness (log ratio) |
| --- | --- |
| GGAUCUUCUCGAUCUAACAAAAAAGACAAAUCUGCCACAAAGCUUGAGAGCAACUUUGGAUGCAGAGGCGGCAGCCUUCGGUGGCGCGAUAGCGCCGACGUUCUCAACUAUGACACGCAAAACGCGUGCUCCGUUGAAUGGAGUUUAUCAUG [U53A C57U A97G] | -1.24 |
| GGAUCUUCUCGAUCUAACAAAAAAGACAAAUCUGCCACAAAGCUUGAGAGCAACUUUGGAUGCAGAGGCGGCAGCCUUCGGUGGCGCGAUAGCGCCAACGUUCUCAACUAUGACACGCAAAACGCGUGCUCCGUUGAAUGGACUUUAUCAUG [U53A C57U G143C] | -3.52 |
| GGAUCUUCUCGAUCUAACAAAAAAGACAAAUCUGCCACAAAGCUUGAGAGCAAAUUCGGAUGCAUAGGCGGCAGCCUUCGGUGGCUCGAUUGCGCCAACGUUCUCAACUAUGACACGCAAAACGCGUGCUCCGUUGAAUGGAGUUUAUCAUG [U53A C54A G65U G86U A91U] | ≤ -4.2 |
| GGAUCUUCUCGAUCUAACAAAAAAGACAAAUCUGCCACAAAGCUUGAGAGCAACUUCGGAUGCAGAGGCGGCAGCCUUCGGUGGCGCGAUAGCGCCAACGUUCUCAACUAUGACACGCUAAACGCGUGCUCCGUUGAAUGGAGUUUAUCAUG [U53A A119U] | -2.1 |
| GGAUCUUCUCGAUCUAACAAAAAAGACAAAUCUGCCACAAAGCUUGAGAGCAAAUUCAGAUGCAGAGGCGGCAGCCUUCGGUGGUGCGAUAGCGCCAACGUUCUCAACUAUGACACGCAAAACGCGUGCUCCGUUGAAUGGAGUUUAUCAUG [U53A C54A G58A C85U] | -0.519 |
| GGAUCUUCUCGAUCUAACAAAAAAGACAAAUCUGCCACAAAGCUUGAGAGCAACUUCGGAUGCAGAGGCGGCAGCCUUCGGUGGCGCGAUAGCGCCAUCGUUCUCAACUAUGACACGCAAAACGCGUGCUCCGUUGAAUGGAGUUUAUCAUG [U53A A98U] | -1.39 |
| GGAUCUUCUCGAUCUAACAAAAAAGACAAAUCUGCCACAAAGCUUGAGAGCAACUUCGGAUGCAGAGGCGGCAGCCUUCGGUGGCGCGAUAGCGCCGACGUUCUCAACUAUGACACGCAAUACGAGUGCUCCGUUGAAUGGAGUUUAUCAUG [U53A A97G A121U C125A] | -1.26 |
| GGAUCUUCUCGAUCUAACAAAAAAGACAAAUCUGCCACAAAGCUUGAGAGCAACUUCGGAUGCAGAGGCGGCAGCCUUCGGUGGCGCGAUAGCGCCAACGUUCUCAACUAUGACACGCAAAACGCGUGCUCCGUUGAAUGGAGUUUGUCAUG [U53A A147G] | -3.69 |
| GGAUCUUCUCGAUCUAACAAAAAAGACAAAUCUGCCACAAAGCUUGAGAGCAAUUUCGGAUGCAGAGGCGGCAUUCUUCGGUGGCUCGAUAGCGCCAACGUUCUCAACUAUGACACGCAAAACGCGUGCUCCGUUGAAUGAAGUUUAUCAUG [U53A C54U G74U C75U G86U G141A] | ≤ -4.2 |
| GGAUCUUCUCGAUCUAACAAAAAAGACAAAUCUGCCACAAAGCUUGAGAGCAACUUCGGAUGCAGAGGCGGCAGCCUUCGGUGGCGCGCUAGCACCAACGUUCUCAACUAUGACACGCAAAACGCGUGCUCCGUUGAAUGCAGUUUAUCAUG [U53A A89C G94A G141C] | -3.63 |
| GGAUCUUCUCGAUCUAACAAAAAAGACAAAUCUGCCACAAAGCUUGAGAGCAAAUUCGGAUGCAGAGGCGGCAGCCUUCGGUGGCGCGAUAGCGCCAACGUUCUCAAGUAUGACACGCAAAACGCGUGCUCCGUUGAAUAGAGUUUAUCAUG [U53A C54A C108G G140A] | ≤ -4.2 |
| GGAUCUUCUCGAUCUAACAAAAAAGACAAAUCUGCCACAAAGCUUGAGAGCAACUUCGGAUGCAGUGGCGGCAGCCUUCGGUGGCGCGAUAGCGCCAACGUUCUCAACUAUGACACGCAAAACGCGUGCUCCGUUGAAUGGAGUUUAUCAUG [U53A A66U] | ≤ -4.2 |
| GGAUCUUCUCGAUCUAACAAAAAAGACAAAUCUGCCACAAAGCUUGAGAGCAACUUAGGAUGCAGAGGGGGCAGCCUUCGGUGGCGCGAUCGCGCCAACGUUCUCAACUAUGACACGCAAAACGCGUGCUCCGUUGAAUGGAGUUUAUCAUG [U53A C57A C69G A91C] | ≤ -4.2 |
| GGAUCUUCUCGAUCUAACAAAAAAGACAAAUCUGCCACAAAGCUUGAGAGCAACUUCGGAUGCAGCGGCGGCAGCCUUCGGUGGCGCGGUAGCCCCAAGGUUCUCAACUAUGACACGCAAAACGCGUGCUCCGUUGAAUGGAGUUUAUCAUG [U53A A66C A89G G94C C99G] | -3.94 |
| GGAUCUUCUCGAUCUAACAAAAAAGACAAAUCUGCCACAAAGCUUGAGAGCAACUUCGGAUGCAGAGGCGGCAGCCUUCGGUGGCGCGUUAGCGCCAACGUUCUCAACUAUGACACGCAAAACGCGUGCUCCGUUGAAUGGAGUUUAUCAUG [U53A A89U] | -0.481 |
| GGAUCUUCUCGAUCUAACAAAAAAGACAAAUCUGCCACAAAGCUUGAGAGCAACUUCGGAUGCAGAGGCGGCAGCCUUCGGUGGCGCGAUAGCGCCAACGUUCUCAACUAUGACACGCAAAACGCGUGCUCCGUUGUAUGGAGUUUAUCAUG [U53A A137U] | ≤ -4.2 |
| GGAUCUUCUCGAUCUAACAAAAAAGACAAAUCUGCCACAAAGCUUGAGAGCAACUUCGGAUGCAGAGGCGGCUGCCUUCGGUGGCGCGAUAGCGCCAACGUUCUCAACUAUGACACGCAAAACGCGUGCUCCGUUGAAUGGAGUUUAUCAUG [U53A A73U] | -2.21 |
| GGAUCUUCUCGAUCUAACAAAAAAGACAAAUCUGCCACAAAGCUUGAGAGCAACUUCGGAUGCAGAGGCGGCAGCCUUCGGUGGCGCGAUAGCGCCAACGUUCUCAACUAUGACACGCAGAACGCGUGCUCCGUUGAAUGGAGUUUAUCAUG [U53A A120G] | -1.88 |
| GGAUCUUCUCGAUCUAACAAAAAAGACAAAUCUGCCACAAAGCUUGAGAGCAACUUCGGAUGCAGAGGCGGCAGCCUUCGGUGGCGCGAUAGCGCCAGCGGUCUCAACUAUGACACGCAAAACGCGUGCUCCGUUGAAUGGAGUUUAUCAUG [U53A A98G U101G] | -1.25 |
